Measurements published in US20250019450A1 (DIAGONAL THERAPEUTICS, published 2025).
Where two headings read alike, the source gives them in different places.

T1: cyno IL-12RB2 overexpressed on 293T cells (Example 2) (cyno, UniProt A0A2K5VNI7 24-860)
T1 construct: whole, on cells
T1 sequence: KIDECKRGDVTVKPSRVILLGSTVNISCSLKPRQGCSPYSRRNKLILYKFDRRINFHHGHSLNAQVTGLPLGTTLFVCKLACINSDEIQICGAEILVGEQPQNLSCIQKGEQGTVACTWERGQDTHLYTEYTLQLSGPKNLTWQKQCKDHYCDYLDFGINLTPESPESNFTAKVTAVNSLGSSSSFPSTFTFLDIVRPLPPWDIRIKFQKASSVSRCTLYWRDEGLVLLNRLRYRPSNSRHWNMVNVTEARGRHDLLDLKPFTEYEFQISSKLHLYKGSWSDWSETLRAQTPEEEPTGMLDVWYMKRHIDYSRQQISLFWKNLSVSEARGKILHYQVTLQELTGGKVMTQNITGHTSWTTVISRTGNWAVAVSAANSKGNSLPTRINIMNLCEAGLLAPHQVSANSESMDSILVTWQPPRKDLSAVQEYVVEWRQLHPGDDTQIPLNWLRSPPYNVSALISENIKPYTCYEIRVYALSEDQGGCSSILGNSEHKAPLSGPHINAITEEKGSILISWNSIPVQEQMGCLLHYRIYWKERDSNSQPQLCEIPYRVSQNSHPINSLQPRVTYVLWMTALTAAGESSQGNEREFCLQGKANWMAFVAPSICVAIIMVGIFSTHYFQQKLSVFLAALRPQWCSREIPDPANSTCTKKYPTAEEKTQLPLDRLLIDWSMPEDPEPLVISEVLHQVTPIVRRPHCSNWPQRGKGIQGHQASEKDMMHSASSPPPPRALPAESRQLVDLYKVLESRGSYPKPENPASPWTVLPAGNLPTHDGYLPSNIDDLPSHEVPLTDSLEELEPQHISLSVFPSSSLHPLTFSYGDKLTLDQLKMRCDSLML

T2: human IL-12RB2 overexpressed on 293T cells (Example 2) (human, UniProt Q99665 24-862)
T2 construct: whole, on cells
T2 sequence (looked up): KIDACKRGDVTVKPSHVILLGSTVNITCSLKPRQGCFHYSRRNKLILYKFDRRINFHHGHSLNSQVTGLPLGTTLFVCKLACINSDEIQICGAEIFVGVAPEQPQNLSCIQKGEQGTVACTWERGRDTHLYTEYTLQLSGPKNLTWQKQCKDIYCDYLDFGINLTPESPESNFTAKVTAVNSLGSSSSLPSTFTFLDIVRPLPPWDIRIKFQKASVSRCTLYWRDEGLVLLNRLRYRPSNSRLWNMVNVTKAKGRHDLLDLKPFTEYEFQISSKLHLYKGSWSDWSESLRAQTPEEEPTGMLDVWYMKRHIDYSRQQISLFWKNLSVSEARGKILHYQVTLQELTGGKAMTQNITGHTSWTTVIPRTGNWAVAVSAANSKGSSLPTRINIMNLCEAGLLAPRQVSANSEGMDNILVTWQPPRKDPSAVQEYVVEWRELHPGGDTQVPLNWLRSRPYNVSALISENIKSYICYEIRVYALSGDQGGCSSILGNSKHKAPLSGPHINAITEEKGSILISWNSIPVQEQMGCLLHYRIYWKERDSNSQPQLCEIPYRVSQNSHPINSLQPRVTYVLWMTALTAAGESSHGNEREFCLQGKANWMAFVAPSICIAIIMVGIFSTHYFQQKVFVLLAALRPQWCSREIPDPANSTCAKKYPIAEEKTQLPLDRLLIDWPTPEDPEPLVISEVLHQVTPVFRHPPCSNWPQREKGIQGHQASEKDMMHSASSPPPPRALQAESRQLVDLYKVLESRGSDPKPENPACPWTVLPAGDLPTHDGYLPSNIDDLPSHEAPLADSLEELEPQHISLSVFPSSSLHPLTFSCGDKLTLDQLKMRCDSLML


Legend:
[1] = target: T3, cyno IL-12RB1 overexpressed on 293T cells (Example 2) (cyno, UniProt A0A2K5VWV1 24-662); assay: FACS, hybridoma supernatant, 293T
T3 construct: whole, on cells

[2] = target: T4, human IL-12RB1 overexpressed on 293T cells (Example 2) (human, UniProt P42701 24-662); assay: FACS, hybridoma supernatant, 293T
T4 construct: whole, on cells

[3] = target: T5, IL-12 receptor endogenously expressed on THP-1 cells (UniProt P42701 24-662; Q99665 24-862); assay: FACS, hybridoma supernatant, THP-1
T5 construct: whole, on cells

[4] = target: T5, IL-12 receptor endogenously expressed …; assay: FACS, hybridoma supernatant, THP-1; remark: listed apart in the source
[5] = target: T1, cyno IL-12RB2 overexpressed on 293T …; assay: FACS, hybridoma supernatant, 293T
[6] = target: T2, human IL-12RB2 overexpressed on 293T …; assay: FACS, hybridoma supernatant, 293T

Binder | Fold over parental 293T [1] | Fold over parental 293T [2] | Fold over buffer [3] | Fold over buffer [4] | Fold over parental 293T [5] | Fold over parental 293T [6]
85801_04M04 (antibody, V domains shown, also called 85801_04M04A) VH: QVQLVQSGAEVKKPGASVRVSCKASGYTFTSYYIHWVRQAPGQGLEWMGIINPSGGSTSYAQKFQGRVTMTRDTSTTTVYMELSSLRSEDTAVYYCAKSNWAYAFDIWGQGTMVTVSS VL: SSELTQDPAVSVALGQTVRITCQGDSLSSYYAGWYQQKPGQAPVLVIYGKNNRPSGIPDRFSGSSSEDTASLTITGAQAEDEADYYCNSRDSSDNHLVFGGGTKLTVL | 195 fold | 620 fold | 12 fold |  |  | 
85801_04M10 (antibody, V domains shown, also called 85801_04M10A) VH: QVQLQESGPGLVKPSETLSLTCTVSGGSISSYYWSWIRQPAGTGLEWIGRFYTSGSTIYNPSLESRVTMSVDTSKNQFSLKLSSVTAADTAVYYCATERDYPHDAFDIWGQGTMVTVSS VL: DIQLTQSPSFLSASVGDRVTIPCRASQDISSFLAWYQQKPGKAPNLLIYAASTLQSGVPSRFSGSGSGTEFTLTISSLQPEDFATYYCQQLNGYPLTFGGGTKVEIK | 122 fold | 336 fold | 36 fold |  |  | 
85801_04M12 (antibody, V domains shown, also called 85801_04M12A) VH: QVQLVESGGGVVQPGRSLRLSCAASGFTFSSHGMHWVRQAPGKGLEWVAIIWYAGNKKYYADSVKGRFTISRDNSKNTLYLQMNSLRAEDTAVYYCARESLLNSASDIWGQGTMVTVSS VL: QSVLTQPPSVSAAPGQTVTISCSGSSSNIGNNYVSWYQQLPGTAPKLLIYDNNKRPSGIPDRFSGSKSGTSATLGITGLQTGDEADYYCGTWDSSLSAVVFGGGTKLTVL | 71 fold | 192 fold | 45 fold |  |  | 
85801_05F05 (antibody, V domains shown, also called 85801_05F05A) VH: QVQLQQWGAGLLKPSETLSLTCAVYGGSFSGYYWNWIRQPPGKGLEWIGEINHSGSTHYNPSLKSRVTISVDTSKNQFSLKLSSVTAADTALYYCARALTGYFDYWGQGTLVTVSS VL: not shown | 118 fold | 311 fold | 56 fold |  |  | 
85801_05G01 (antibody, V domains shown, also called 85801_05G01A) VH: QVQLVQSGAEVKKPGASAKVSCKASGYTFTDYYLHWVRQAPGQGLEWMGWINPNNGGTHYAQKFQGRVTMTRDTSISTAYMELSRLRSDDTAVYYCAREMGGTTAFDYWGQGTLVTVSS VL: DIQMTQSPSSLSASVGDRVTITCRASQGIGNYLAWFQQRPGKAPKSLIYAASSLQSGVPSKFSGSGSGTDFTLTISSLQPADFAIYYCQQYNIYPYTFGPGTRLEIK | 73 fold | 170 fold | 7 fold |  |  | 
85801_06L19 (antibody, V domains shown, also called 85801_06L19A) VH: QVQLVQSGAEVKKPGASVKVSCKASGYTFTDYYIHWVRQAPGQGLEWMGWINPDSGGTHYAQKFQGRVTMTRDTSISTVYMDLSRLRSDDTAVYYCAREGEGLASFDSWGQGTLVTVSS VL: DIQMTQSPSSLSASVGNRVTITCRASQGINNYLAWFQQKPGKAPKSLIYAASSLQSGVPSKFSGSGSGTDFTLTISSLQPEDFATYYCQQYNNYPFTFGPGTKVDIK | 25 fold | 73 fold | 9 fold |  |  | 
85801_07A01 (antibody, V domains shown, also called 85801_07A01A) VH: EVQLVESGGGLVQPGGSLRLSCAASGFTFSSYWMSWVRQAPGKGLEWVANIKQDGSEKYYVDSVKGRFTISRDNAKNSLYLQMNSLRAEDTAVYYCAREGLQLGIFDYWGQGTLVTVSS VL: not shown | 21 fold | 57 fold | 37 fold |  |  | 
85801_10F19 (antibody, V domains shown, also called 85801_10F19A) VH: QVQLVQSGAEVRKPGASVKVSCKASGYTFTDYYMHWVRQAPGQGREWMGWINPNSGGTHYAQKFQGRVTMTWDTSISTAYMELSRLRSDDTAVYYCAREGATTVYFDYWGQGTLVTVSS VL: DIQLTQSPSFLSASVGDRVTLTCRASQGINNYLAWYQEKPGKAPNPLIYDASTLQSGVPSRFSGSGSGTEFTLTISSLQPEDFATYYCQQLNMYPYTFGQGTKLEIK | 16 fold | 41 fold | 8 fold |  |  | 
85801_10M19 (antibody, V domains shown, also called 85801_10M19A) VH: EVQLVESGGGLVQPGGSLRLSCAASGFTFSSYDMHWVRQATGKGLEWVSVIGTAGDTYYPGSVKGRFTISRENAKNSLYLQMNSLRAGDTAVYYCARSRGETDWYFDLWGRGTLVTVSS VL: EIVLTQSPATLSLSPGERATLSCRASQSVSRLLAWYQQKPGQAPRLLIYDASNRATGIPARFSGSGSGTDFTLTISSLEPEDFAVYYCQQRRNWLTFGGGTKVEIK | 21 fold | 58 fold | 35 fold |  |  | 
85802_06H06 (antibody, V domains shown, also called 85802_06H06A) VH: QVHLQESGPGLVKPSETLSLTCTVSGGSISYYYWNWIRQPPGKGLEWIASIYNSGNINYNPSLKSRVTISVDTSKNQFSLKLTSVTAADTAVYYCARGGYSYGYFDNWGQGILVTVSS VL: SYELTQPPSVSVSPGQTASITCSGRELGNKYAYWYQQKPGQSPVLVIYEDYKRPSGIPERFSGSNSGNTATLTISGTQAMDEADYYCQAWDSSTVIFGGGTKLTVL |  |  |  | 34 fold | 10 fold | 2.9 fold
85802_06F06 (antibody, V domains shown, also called 85802_06F06A) VH: QVQLQESGPGLVKPSETLSLTCTVSGGSISSYYWSWIRQPPGKGLEWFGYIYDSGSTNYNPSLKSRVTISVDTSKNQFSLKLSSVTAADTAVYYCARGSYFWYFDLWGRGTLVTVSS VL: SYELTQPPSVSVSPGQTASITCSGDKLGAKYASWYHQKPGQSPVLVIYQDTKRPSGIPERFSGSNSGNTATLTISGTQAMDEADYYCQAWDSSTVVFGGGTKLTVL |  |  |  | 35 fold | 14 fold | 3.3 fold
85802_06A17 (antibody, V domains shown, also called 85802_06A17A) VH: EVQLVQSGAEVKKPGESLKISCKGSGYSFTSYWIGWVRQMPGKGLECMGIIYPGDSDTRYSPSFQGQVTISADKSISTAYLQWSSLKASDTAMYYCARHEGAYWYFDLWGRGTLVTVSS VL: QSVLTQPPSVSGAPGQRVTISCTGSSSNIGAGYDVHWYQQLPGTAPKVLIYGNSNRPSGVPDRFSGSKSGTSASLAITGLQAEDEADYYCQSLDTSHVVFGGGTKLTVL |  |  |  | 28 fold | 11 fold | 2.8 fold
85802_10K12 (antibody, V domains shown, also called 85802_10K12A) VH: QVTLRESGPALVKPTQTLTLTCTFSGFSLSTSGMCVSWIRQPPGKALEWLALIYWDDDKYYSTSLKTRLTISKDTSKNQVVLTMTNMDPVDTATYYCARMRRGIEAFDIWGQGTMVTVFS VL: QSVLTQPPSVSGAPGQRVTISCTGSSSNIGAGYDVHWYQQLPGTAPKLLIFGYSNRPSGVPVRFSGSKSGTSASLAITGLLAEDEADFYCQSFDISLTGWVFGGGTKLTVL |  |  |  | 27 fold | 13 fold | 3.3 fold
85802_02K15 (antibody, V domains shown, also called 85802_02K15A) VH: EVQLVQSGTEVKKPGESLKISCKGSGYSFTSYWIGWVRQMPGKGLEWMGNIYPGDSDTRYSPSFQGHVTISADKSISTAYLQWSSLKASDTAMYYCARRGGGYWGQGTLVTVSS VL: not shown |  |  |  | 53 fold | 6 fold | 3.3 fold
